In PMC8764033, “Single-molecule analysis of specificity and multivalency in binding of short linear substrate motifs to the APC/C” (Nature Communications, 2022):

How the values were obtained:
[1] = target: Cdc20-activated yeast APC/C with the mutant Apc10 subunit Apc10-4A (S. cerevisiae | S. cerevisiae (endogenous in yeast)) (UniProt P26309); experiment: single-molecule off-rate (SMOR) assay, TIRF microscopy; target held on PEG/PEG-biotin glass by NeutrAvidin and biotinylated anti-Strep-Tag II antibody (tag on the activator); dye-labeled ligand (peptide no greater than 1 nM) in buffer C + BSA (20 mM HEPES pH 7.5, 150 mM KCl, 10% glycerol, 0.05% Tween-20, 1 mM DTT) with oxygen scavengers; mean dwell time from an exponential distribution; dwell times below 100 ms noted as single-frame (SF)
Sequence of Cdc20-activated yeast APC/C with the mutant Apc10 subunit Apc10-4A (S. cerevisiae | S. cerevisiae (endogenous in yeast)) (P26309 whole entry, looked up, change not shown, tested part not stated): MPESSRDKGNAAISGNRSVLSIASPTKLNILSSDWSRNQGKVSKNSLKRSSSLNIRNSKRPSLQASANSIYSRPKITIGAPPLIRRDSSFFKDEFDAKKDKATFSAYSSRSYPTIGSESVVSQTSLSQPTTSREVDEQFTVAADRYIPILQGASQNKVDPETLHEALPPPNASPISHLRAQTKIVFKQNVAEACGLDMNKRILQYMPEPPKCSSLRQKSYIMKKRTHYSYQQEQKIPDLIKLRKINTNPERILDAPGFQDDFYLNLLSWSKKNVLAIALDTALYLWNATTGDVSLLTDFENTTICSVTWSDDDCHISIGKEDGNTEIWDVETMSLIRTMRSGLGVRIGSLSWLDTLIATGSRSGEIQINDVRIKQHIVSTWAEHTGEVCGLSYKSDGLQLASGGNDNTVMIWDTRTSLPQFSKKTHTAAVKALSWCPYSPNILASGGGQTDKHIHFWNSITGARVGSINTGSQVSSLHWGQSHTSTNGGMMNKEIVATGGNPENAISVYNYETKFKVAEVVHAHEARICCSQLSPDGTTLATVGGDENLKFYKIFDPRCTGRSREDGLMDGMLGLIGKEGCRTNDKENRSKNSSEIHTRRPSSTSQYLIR

[2] = target: Cdh1-activated yeast APC/C with the mutant Apc10 subunit Apc10-4A (S. cerevisiae | S. cerevisiae (endogenous in yeast)) (UniProt P53197); experiment: as above
Sequence of Cdh1-activated yeast APC/C with the mutant Apc10 subunit Apc10-4A (S. cerevisiae | S. cerevisiae (endogenous in yeast)) (P53197 whole entry, looked up, change not shown, tested part not stated): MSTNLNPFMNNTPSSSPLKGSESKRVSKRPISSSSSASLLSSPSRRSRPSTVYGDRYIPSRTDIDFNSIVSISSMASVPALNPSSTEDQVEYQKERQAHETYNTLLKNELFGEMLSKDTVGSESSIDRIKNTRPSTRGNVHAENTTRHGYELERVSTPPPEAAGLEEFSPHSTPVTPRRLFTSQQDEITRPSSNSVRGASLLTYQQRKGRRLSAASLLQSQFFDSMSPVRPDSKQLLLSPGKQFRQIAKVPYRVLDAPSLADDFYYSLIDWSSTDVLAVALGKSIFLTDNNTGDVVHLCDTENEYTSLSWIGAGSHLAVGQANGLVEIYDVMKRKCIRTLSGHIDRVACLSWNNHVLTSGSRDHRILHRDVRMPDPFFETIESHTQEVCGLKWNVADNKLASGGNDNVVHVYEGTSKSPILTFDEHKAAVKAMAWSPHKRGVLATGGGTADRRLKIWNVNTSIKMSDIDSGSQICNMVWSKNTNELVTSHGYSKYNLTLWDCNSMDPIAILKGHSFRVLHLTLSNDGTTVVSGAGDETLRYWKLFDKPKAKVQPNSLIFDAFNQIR

[3] = target: Cdc20-activated yeast APC/C (S. cerevisiae | S. cerevisiae (endogenous in yeast)) (UniProt P26309); experiment: as above
[4] = target: Cdh1-activated yeast APC/C (S. cerevisiae | S. cerevisiae (endogenous in yeast)) (UniProt P53197); experiment: as above
[5] = target: Cdh1-activated yeast APC/C (S. cerevisiae | S. cerevisiae (endogenous in yeast)) (UniProt P53197); experiment: fluorescence polarisation + other: single-molecule off-rate (SMOR) assay; inferred constants: kon from the KD of anisotropy and the koff of SMOR; KD for APC/C^Cdh1 from the dwell time with the kon of Cdh1 alone assumed

Sequence of Hsl1 fragment (amino acids 667–872) with C-terminal HaloTag, wild-type degrons (P34244 667-872): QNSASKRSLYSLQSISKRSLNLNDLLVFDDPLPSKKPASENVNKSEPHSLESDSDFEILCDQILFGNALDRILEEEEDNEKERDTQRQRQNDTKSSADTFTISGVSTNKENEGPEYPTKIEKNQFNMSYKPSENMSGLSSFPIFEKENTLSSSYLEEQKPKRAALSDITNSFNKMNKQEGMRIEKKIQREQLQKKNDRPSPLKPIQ

Substance | mean dwell time [1] [s] | mean dwell time [2] [s] | mean dwell time [3] [s] | mean dwell time [4] [s] | Kd [5] [nM]
Cy5-labeled Hsl1 D box peptide | 0.152 | 0.375 |  |  | 
Hsl1 fragment (amino acids 667–872) with C-terminal HaloTag, wild-type degrons (from UniProt P34244 667-872) (domain or fragment) | 0.449 | 75.9 | 0.518 | 321 | 4
